Reference: the supplement of paper PMC12042874
± gives the uncertainty stated by the source.

Experiment: amyloid nucleation score (Sup35N fusion, yeast selection) (log enrichment); library NNK3; higher = more nucleation; inactive = no reads after selection
Method in brief: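 Random libraries were run with three technical output replicates. In each, psi-negative yeast expressing Sup35N fused to peptides of 20 random codons were induced 24 hours with 100 μM copper sulfate and grown 7 days at 30°C on medium lacking adenine and uracil, and input and output plasmid inserts were Illumina-sequenced. The nucleation score is the DiMSum log enrichment of output over input reads, centred on the mode score of non-aggregating sequences, and sequences under 100 input reads were excluded.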
FSMAFYMYG showed an amyloid nucleation score of 0.163 ± 0.25. YINFISWNVCVSCLFWLDSV gave an amyloid nucleation score of 2.09 ± 0.054. With PVVTMLYLTSIVSSSGHGSY the amyloid nucleation score was 0.898 ± 0.11. For RGRYWWFYYLAFICMKWYSG, the amyloid nucleation score was “inactive”. With CYVPVKGLYMPPYGTLRLWG the amyloid nucleation score was “inactive”. For WVWSKL, the amyloid nucleation score was “inactive”. With YMLLVSGFA the amyloid nucleation score was “inactive”. With GRKVCLSRPTRFNSFLWMVY the amyloid nucleation score was “inactive”. With ILCCTCYLRDIDMVVGACDG the amyloid nucleation score was 1.62 ± 0.063. In the case of LKIWGRFITGETV, the amyloid nucleation score is reported as “inactive”. In the case of CGAQALAQWYLYLLSHAIQY, the amyloid nucleation score is reported as “inactive”. For TRGRNTKDGVDGDLPADVLV, the amyloid nucleation score was “inactive”. In the case of GLHLYEFRGRCNTSVDSQTK, the amyloid nucleation score is reported as “inactive”. In the case of MQMMGNEILRFFFVSVLNIN, the amyloid nucleation score is reported as “inactive”. For AWYKFVGRVMRDPYMEARLA, the amyloid nucleation score was “inactive”. For VLPENIILNFIQMSDNRFLL, the amyloid nucleation score was 1.8 ± 0.072. Work on RCVLRW yielded an amyloid nucleation score of 1.34 ± 0.12. With FLCWIYDECKGVRCVRLGAI the amyloid nucleation score was “inactive”. In the case of ERLIPLPHISVIS, the amyloid nucleation score is reported as “inactive”. For YASWKLRTN, the amyloid nucleation score was “inactive”. Work on YQRYGRGFLRVSSFSLDSRM yielded an amyloid nucleation score of -0.352 ± 0.81. In the case of VVGNVTGY, the amyloid nucleation score is reported as “inactive”. For PIMVRRHEGSH, the amyloid nucleation score was “inactive”. For CICLVDPERLKDKTI, the amyloid nucleation score was “inactive”. With GGWSARYTNCNLYYTEASGP the amyloid nucleation score was 0.857 ± 0.18. MVVTKLRRDVISQSRISMGW gave an amyloid nucleation score of 1.07 ± 0.1. For SVIVKAKASTVGDMQAKCRI, the amyloid nucleation score was 1.1 ± 0.15. With LVFSNFYGYFRASC the amyloid nucleation score was “inactive”. For HGTAGLPK, the amyloid nucleation score was 0.807 ± 0.14. In the case of PCLFSQDRVRKTRSHKVNAE, the amyloid nucleation score is reported as “inactive”. With DETVMFSFKFIVKSVVVDPR the amyloid nucleation score was “inactive”. Substance NGVILYETSAWVTNVYSRFK has an amyloid nucleation score of 1.2 ± 0.18. With SYPGRLYSSGYDCVYSNRSR the amyloid nucleation score was “inactive”. Substance FTCDTMKYSSRYSLFYVRVS has an amyloid nucleation score of 0.205 ± 0.77. For YVSLVSLCMCIRLQGEFLYG, the amyloid nucleation score was 1.24 ± 0.089. In the case of RSHPKCHSSLLHSWK, the amyloid nucleation score is reported as “inactive”. For KICAK, the amyloid nucleation score was “inactive”. TPGNNSYAVLMLNELTYKPA showed an amyloid nucleation score of 0.92 ± 0.13. In the case of RSRVSQFICRPGEVVNIAKC, the amyloid nucleation score is reported as “inactive”. With IYRTPSADDLSRDAYIGFYR the amyloid nucleation score was “inactive”. For CFIVQWMLTLMCVFANCILT, the amyloid nucleation score was “inactive”. With FMLWYSPKLFG the amyloid nucleation score was “inactive”. In the case of YIDFVPLVYTRKFDGEETCI, the amyloid nucleation score is reported as “inactive”. With ITNVRSVRFLYSSTYYHIVL the amyloid nucleation score was 1.83 ± 0.11. In the case of FISPVL, the amyloid nucleation score is reported as “inactive”. With KYLGG the amyloid nucleation score was “inactive”. In the case of KRVRGLALTQIY, the amyloid nucleation score is reported as 0.159 ± 0.45. For QTAIIANPSVGGWLSNSHVR, the amyloid nucleation score was “inactive”. For LNQYLYFVRDMGDVMFCLYF, the amyloid nucleation score was “inactive”. In the case of YIIFVNKLSSPYFVT, the amyloid nucleation score is reported as 1.06 ± 0.19. Substance GFFFSLFYWNHFRGMTRQRF has an amyloid nucleation score of 0.973 ± 0.2. For ITVELTCGSGYYGTMTENQV, the amyloid nucleation score was “inactive”. With CYYDSLYCVEFHFCNYIVVL the amyloid nucleation score was -0.127 ± 0.99. In the case of QGEHRHLCDLSLSEG, the amyloid nucleation score is reported as “inactive”. Substance KFVQSIIGHWNLGHMPCGSM has an amyloid nucleation score of 0.587 ± 0.17. With AWTIRGQA the amyloid nucleation score was “inactive”. For IEGVGCIFRDLGDFLRGPWG, the amyloid nucleation score was “inactive”. With SAVKWC the amyloid nucleation score was “inactive”. With DTREN the amyloid nucleation score was “inactive”. In the case of MTFRFNVMLVCLWRATNCFL, the amyloid nucleation score is reported as “inactive”. In the case of LSNLRGYNH, the amyloid nucleation score is reported as “inactive”. With VHMNRSGSAALEFGMLWEYI the amyloid nucleation score was “inactive”. In the case of IKNEQSARRGASSCGGTADK, the amyloid nucleation score is reported as “inactive”. For KSVYMHTGPGKGNRVVEKCM, the amyloid nucleation score was “inactive”. With SCVRVTSLGVNNTRFFDRSW the amyloid nucleation score was “inactive”. For MRPITGVMVLNVSNRQITLF, the amyloid nucleation score was 1.72 ± 0.088. SFNRISIFYVNWCTAMNFVY showed an amyloid nucleation score of 1.13 ± 0.093. For SDKFMLRHHLCWDARSCFQV, the amyloid nucleation score was 0.348 ± 0.75. For VEHSFYSLVCHRTDLF, the amyloid nucleation score was “inactive”. For FKVNLDVP, the amyloid nucleation score was -0.263 ± 1.4. With KSMATMSQIVPDSFSEFDWY the amyloid nucleation score was “inactive”. In the case of YLCFLSKMVSYSISYQWSRQ, the amyloid nucleation score is reported as “inactive”. For PSKPRTGQVGGVYHLCVVFW, the amyloid nucleation score was “inactive”. With WVPLDHVGGA the amyloid nucleation score was “inactive”. With WEFLCFFAT the amyloid nucleation score was “inactive”. With SELETQDIYMRSQPFTEFSP the amyloid nucleation score was “inactive”. For RKSDFVIVSCYQRFGNRELN, the amyloid nucleation score was “inactive”. With GRNKSLYGIGLVRYVMLVSE the amyloid nucleation score was “inactive”. For KAWETWAITTRSWKMFIRCL, the amyloid nucleation score was 0.046 ± 0.96. In the case of MWVNATSSV, the amyloid nucleation score is reported as “inactive”.
